The values below come from article PMC8599648 (Molecular microbiology, 2021).

Positions count from the first letter of the chain named. Names and notes keep the numbering of the source.

The data set “SEC” concerns the molecule itself. Nature of the data set: SEC. (In gel filtration, larger molecules generally elute earlier.)
The data set “cross-linking” concerns the molecule itself. Nature of the data set: cross-linking.

B1: FNR D154A (natural protein, E. coli (strain MG1655), UniProt P0A9E5 1-250, looked up)
chain: MIPEKRIIRRIQSGGCAIHCQDCSISQLCIPFTLNEHELDQLDNIIERKKPIQKGQTLFKAGDELKSLYAIRSGTIKSYTITEQGDEQITGFHLAGDLVGFDAIGSGHHPSFAQALETSMVCEIPFETLDDLSGKMPNLRQQMMRLMSGEIKGAQDMILLLSKKNAEERLAAFIYNLSRRFAQRGFSPREFRLTMTRGDIGNYLGLTVETISRLLGRFQKSGMLAVKGKYITIENNDALAQLAGHTRNVA
Consider B1, for which the stoichiometry N (commonly a count of units in the complex or per binding partner) in “SEC” turned out to be 2.

B2: YnfK I184Y (enzyme, E. coli (strain MG1655), UniProt P0A6E9 1-231, looked up)
chain: MLKRFFITGTDTSVGKTVVSRALLQALASQGKTVAGYKPVAKGSKETPEGLRNKDALVLQSVSTIELPYEAVNPIALSEEESSVAHSCPINYTLISNGLANLTEKVDHVVVEGTGGWRSLMNDLRPLSEWVVQEQLPVLMVVGIQEGCINHALLTAQAIANDGLPLIGWVANRINPGLAHYAEYIDVLGKKLPAPLIGELPYLPRAEQRELGQYIRLAMLRSVLAVDRVTV
Turning to B2, the binding result in “cross-linking” is “binds”.

B3: YnfK S13E/I184Y (enzyme, E. coli (strain MG1655), UniProt P0A6E9 1-231, looked up)
chain: B2 chain with S13E
As to B3, the binding result in the data set “cross-linking” is listed as “binds”.

B4: YnfK T114A/I184Y (enzyme, E. coli (strain MG1655), UniProt P0A6E9 1-231, looked up)
chain: B2 chain with T114A
On to B4, for which the binding result in the data set “cross-linking” was “binds”.

B5: YnfK S13E (enzyme, E. coli (strain MG1655), UniProt P0A6E9 1-231, looked up)
chain: B2 chain with S13E, Y184I
For B5, the binding result in the data set “cross-linking” is “binds”.

B6: YnfK T114A (enzyme, E. coli (strain MG1655), UniProt P0A6E9 1-231, looked up)
chain: B2 chain with T114A, Y184I
B6: the binding result in the data set “cross-linking” is listed as “binds”.
